Laboratory results taken from patent US20170355774A1 (Regeneron, published 2017).

T1: hGITR.mmh (human)
T1 construct: soluble monomeric construct; also called human (h) GITR.mmh; monomeric human GITR
T1 chain: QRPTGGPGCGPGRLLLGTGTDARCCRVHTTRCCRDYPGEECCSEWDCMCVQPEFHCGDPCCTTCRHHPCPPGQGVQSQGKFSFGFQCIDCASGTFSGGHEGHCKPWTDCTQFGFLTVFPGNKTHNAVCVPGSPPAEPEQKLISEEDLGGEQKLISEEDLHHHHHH

T2: hGITR.mFc (human)
T2 construct: soluble dimeric construct with mouse Fc; also called dimeric human GITR
T2 chain: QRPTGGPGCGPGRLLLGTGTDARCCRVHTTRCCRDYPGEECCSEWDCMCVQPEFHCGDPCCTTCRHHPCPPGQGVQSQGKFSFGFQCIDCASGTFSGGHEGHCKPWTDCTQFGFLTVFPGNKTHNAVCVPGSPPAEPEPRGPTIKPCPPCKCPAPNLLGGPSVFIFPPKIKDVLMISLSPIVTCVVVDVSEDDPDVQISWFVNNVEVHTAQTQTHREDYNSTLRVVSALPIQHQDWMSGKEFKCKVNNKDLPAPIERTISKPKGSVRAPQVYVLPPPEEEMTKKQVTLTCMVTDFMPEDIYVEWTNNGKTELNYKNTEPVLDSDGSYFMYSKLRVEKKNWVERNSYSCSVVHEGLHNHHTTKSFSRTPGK

T3: mfGITR.mmh (Macaca fasicularis)
T3 construct: soluble monomeric construct; also called Macaca fasicularis (mf) GITR.mmh; cynomolgus GITR protein
T3 chain: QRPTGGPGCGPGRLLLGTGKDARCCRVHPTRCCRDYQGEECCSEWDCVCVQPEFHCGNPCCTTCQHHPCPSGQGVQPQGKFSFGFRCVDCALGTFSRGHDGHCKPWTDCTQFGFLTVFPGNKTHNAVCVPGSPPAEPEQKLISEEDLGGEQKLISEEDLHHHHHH

T4: human GITR (amino acids M1-V241, NCBI Accession #NP_004186.1) expressed on cells (human, UniProt Q9Y5U5 26-241)
T4 sequence: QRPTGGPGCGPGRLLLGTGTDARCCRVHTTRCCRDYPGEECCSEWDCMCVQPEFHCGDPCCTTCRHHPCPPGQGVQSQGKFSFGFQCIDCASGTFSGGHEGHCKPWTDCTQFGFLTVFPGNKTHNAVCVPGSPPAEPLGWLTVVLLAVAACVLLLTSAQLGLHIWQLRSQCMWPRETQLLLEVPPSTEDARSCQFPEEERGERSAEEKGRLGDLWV


How the values were obtained:
[1] = target: T1, hGITR.mmh; test: SPR 37C, mAb capture
[2] = target: T2, hGITR.mFc; test: SPR 37C, mAb capture
[3] = target: T3, mfGITR.mmh; test: SPR 37C, mAb capture
[4] = target: T4, human GITR (amino acids M1-V241, NCBI …); test: cell-based or functional assay
[5] = target: T4, human GITR (amino acids M1-V241, NCBI …); test: cell-based or functional assay; remark: listed apart in the source
[6] = target: T4, human GITR (amino acids M1-V241, NCBI …); test: cell-based or functional assay; remark: listed apart in the source
[7] = target: T4, human GITR (amino acids M1-V241, NCBI …); test: ECL cell binding, hGITR/HEK293-D9
In short: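 Cells blocked with 2% BSA, then antibody dilutions from 1.7 pM to 100 nM added 1 h at RT. Bound antibody detected with SULFO-TAG anti-human kappa antibody, electrochemiluminescence read, RLU fitted by four-parameter logistic; signal at 100 nM on hGITR cells versus parental cells also recorded.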

[8] = target: T4, human GITR (amino acids M1-V241, NCBI …); test: cell-based or functional assay; remark: listed apart in the source
[9] = target: T4, human GITR (amino acids M1-V241, NCBI …); test: cell-based or functional assay; remark: listed apart in the source

Row | Binder | Kd [1] [nM] | koff [1] [s⁻¹] | kon [1] [M⁻¹ s⁻¹] | t½ [1] [min] | Kd [2] [nM] | koff [2] [s⁻¹] | kon [2] [M⁻¹ s⁻¹] | t½ [2] [min] | Kd [3] [nM] | koff [3] [s⁻¹] | kon [3] [M⁻¹ s⁻¹] | t½ [3] [min] | % Activation, NF-kB-Luc, non-anchored [4] [%] | % Blocking, NF-kB-Luc, non-anchored [4] [%] | EC50, hGITR activation, NF-kB-Luc, non-anchored [4] [nM] | fold activation, T-cell proliferation, 33 nM, FcgR anchored, donor 1 [5] [fold] | fold activation, T-cell proliferation, 33 nM, FcgR anchored, donor 2 [5] [fold] | fold activation, T-cell proliferation, 33 nM, FcgR anchored, donor 3 [5] [fold] | Average Signal (RLU) at 100 nM [7] [RLU] | EC50 [7] [nM] | also measured
1 | H4H14475P (antibody, human IgG4, V domains shown, human IgG4 (H4H)) VH: QVQLVESGGGVVQPGRSLRLSCAASGTIFSTHGMHWVRQAPGKGLEWVAVISYDGNKKYYAGSVKGRFTISRDNSKNTLYLQMNDVRSEDTAVYHCTTDITGITDYWGQGTLVTVSS VL: DIQMTQSPSSLSASVGDRVTITCRASQGIGNDLGWYQQKLGKAPKRLIYAASSLESGVPSRFSGSGSGTEFILTISSLQAEDFATYYCLQHNGFPTFGQGTKVEIK | 45.7 | 0.014 | 307000 | 0.8 | 0.847 | 0.00135 | 1.6e+06 | 8.5 | 41.7 | 0.00765 | 183000 | 1.5 | 70 | -2 | 1 | 1 | 1.3 | 1.3 | 7500 | 8 | fold activation, T-cell proliferation, 33 nM, FcgR anchored, donor 4 [5]: 1.6 fold; fold activation, T-cell proliferation, 33 nM, FcgR anchored, donor 5 [5]: 1.5 fold; fold activation, T-cell proliferation, 33 nM, FcgR anchored, mean [5]: 1.3 fold; EC50, hGITR activation, NF-kB-Luc, FcgR anchored [6]: 0.04 nM; Fold Activation over basal signal, NF-kB-Luc, FcgR anchored [6]: 8 fold; IC50, blocking of hGITRL stimulation, NF-kB-Luc, FcgR anchored [6]: 0.2 nM; fold activation, T-cell proliferation, 22 nM, non-anchored, donor 1 [8]: 0.7 fold; fold activation, T-cell proliferation, 22 nM, non-anchored, donor 2 [8]: 1.1 fold; fold activation, T-cell proliferation, 22 nM, non-anchored, donor 3 [8]: 0.8 fold; fold activation, T-cell proliferation, 22 nM, non-anchored, donor 4 [8]: 0.8 fold; fold activation, T-cell proliferation, 22 nM, non-anchored, mean [8]: 0.9 fold; fold activation, T-cell proliferation, plate-bound Ab 10.6 nM, donor 1 [9]: 0 fold; fold activation, T-cell proliferation, plate-bound Ab 10.6 nM, donor 2 [9]: 2 fold; fold activation, T-cell proliferation, plate-bound Ab 10.6 nM, donor 3 [9]: 2 fold; fold activation, T-cell proliferation, plate-bound Ab 10.6 nM, donor 4 [9]: 2 fold; fold activation, T-cell proliferation, plate-bound Ab 10.6 nM, donor 5 [9]: 2 fold; fold activation, T-cell proliferation, plate-bound Ab 10.6 nM, donor 6 [9]: 12 fold; fold activation, T-cell proliferation, plate-bound Ab 10.6 nM, donor 7 [9]: 1 fold; fold activation, T-cell proliferation, plate-bound Ab 10.6 nM, donor 8 [9]: 0 fold; fold activation, T-cell proliferation, plate-bound Ab 10.6 nM, mean [9]: 3 fold
2 | H1H14512P (antibody, human IgG1, V domains shown, human IgG1 (H1H)) VH: QVQLVESGGGVVQPGRSLRLSCAVSGFTLSSYGMDWVRQAPGKGLEWVAVIWYDGSNKYYSDSVKGRFTISRDNSKNTLFLQMNSLRADDTAVYYCARDGELGLDYYSGMDVWGQGTTVTVSS VL: DIQMTQSPSSLSASVGDRVTITCRASQDIRNDLGWYQQKPGKAPKRLIYGASSLQSGVPSRFSGSGSGTEFTLTISSLQPEDFATYYCLQLNSYPRTFGQGTKVEIK |  |  |  |  |  |  |  |  |  |  |  |  | 20 | 100 | 1.2 |  |  |  | 4620 | 0.25 | IC50, blocking of hGITRL stimulation, NF-kB-Luc, non-anchored [4]: 0.7 nM; EC50, hGITR activation, NF-kB-Luc, FcgR anchored [6]: 0.02 nM; Fold Activation over basal signal, NF-kB-Luc, FcgR anchored [6]: 7 fold; IC50, blocking of hGITRL stimulation, NF-kB-Luc, FcgR anchored [6]: 0.1 nM
3 | H4H14516P (antibody, human IgG4, V domains shown, human IgG4 (H4H)) VH: EVQLVESGGGLVQPGGSLRLSCAASGFTFSNYEMYWVRQAPGKGLEWVSYISSSGTTIYYADSVKGRFSVSRENARSSLYLQMNSLRVEDSAVYFCAKYNWNSFYGLDVWGQGTTVTVSS VL: AIQMTQSPSSLSASVGDRVTITCRASQDIRNDLGWYQQKPGKAPKLLISAASSLQGGVPSRFSGSGSGTDFTLTISSLQPADFATYYCLQEYNYALTFGGGTKVEIK | 32.7 | 0.00738 | 225000 | 1.6 | 1.08 | 0.00181 | 1.68e+06 | 6.4 | 58.7 | 0.0112 | 190000 | 1 | 45 | 70 | 0.8 | 1.2 | 0.9 | 1.2 | 10300 | 0.7 | IC50, blocking of hGITRL stimulation, NF-kB-Luc, non-anchored [4]: 2.3 nM; fold activation, T-cell proliferation, 33 nM, FcgR anchored, donor 4 [5]: 1.3 fold; fold activation, T-cell proliferation, 33 nM, FcgR anchored, donor 5 [5]: 1.1 fold; fold activation, T-cell proliferation, 33 nM, FcgR anchored, mean [5]: 1.1 fold; fold activation, T-cell proliferation, 22 nM, non-anchored, donor 1 [8]: 0.7 fold; fold activation, T-cell proliferation, 22 nM, non-anchored, donor 2 [8]: 1.2 fold; fold activation, T-cell proliferation, 22 nM, non-anchored, donor 3 [8]: 1 fold; fold activation, T-cell proliferation, 22 nM, non-anchored, donor 4 [8]: 0.9 fold; fold activation, T-cell proliferation, 22 nM, non-anchored, mean [8]: 0.9 fold; fold activation, T-cell proliferation, plate-bound Ab 10.6 nM, donor 1 [9]: 1 fold; fold activation, T-cell proliferation, plate-bound Ab 10.6 nM, donor 2 [9]: 4 fold; fold activation, T-cell proliferation, plate-bound Ab 10.6 nM, donor 3 [9]: 4 fold; fold activation, T-cell proliferation, plate-bound Ab 10.6 nM, donor 4 [9]: 12 fold; fold activation, T-cell proliferation, plate-bound Ab 10.6 nM, donor 5 [9]: 4 fold; fold activation, T-cell proliferation, plate-bound Ab 10.6 nM, donor 6 [9]: 14 fold; fold activation, T-cell proliferation, plate-bound Ab 10.6 nM, donor 7 [9]: 4 fold; fold activation, T-cell proliferation, plate-bound Ab 10.6 nM, donor 8 [9]: 1 fold; fold activation, T-cell proliferation, plate-bound Ab 10.6 nM, mean [9]: 5 fold
